Test results as given in article doi:10.1101/2022.02.13.480273.

Target: GST-RABL2^S37N (Chlamydomonas reinhardtii)
Test: SEC

B1: ARL3^T30N (bacterially expressed) (natural protein)
chain: MGLLSLIRGLKKKEGEARILVLGLDNAGKNTILKALSEEDITTITPTQGFNIKSLSRDGFNLKIWDIGGQKSIRPYWRNYFDQTDALIYVIDSADSKRLSESEFELTELLQEEKMTGVPLLVFANKQDLVGALAADEIASTLDLTSIRDRPWQIQACSAKQGTGLKEGMEWMMKQVK
stoichiometry N: 1
